Patent publication US20190062427A1

Legend:
[1] = target: Siglec-9-Fc (R&D Systems, catalog number 1139-SL-050) (human) (UniProt Q9Y336); experiment: blocking assay by flow cytometry on U937 cells (sialic acid ligands); same table: S9-Fc alone 156, secondary alone 37.6; panel headed 'Isotype does not block'
[2] = target: human Siglec-9 expressed on human cells (human) (UniProt Q9Y336); experiment: flow cytometry on human primary dendritic cells, PE-conjugated secondary antibody only (no primary), background control
[3] = target: human Siglec-9 expressed on human cells (human) (UniProt Q9Y336); experiment: flow cytometry on human primary macrophages, PE-conjugated secondary antibody only (no primary), background control
[4] = target: human Siglec-9 expressed on human cells (human) (UniProt Q9Y336); experiment: flow cytometry on human primary monocytes, PE-conjugated secondary antibody only (no primary), background control
[5] = target: human Siglec-9 expressed on human cells (human) (UniProt Q9Y336); experiment: flow cytometry on human primary macrophages, isotype control, PE secondary
[6] = target: human Siglec-9 expressed on human cells (human) (UniProt Q9Y336); experiment: flow cytometry on human primary dendritic cells, isotype control, PE secondary
[7] = target: human Siglec-9 expressed on human cells (human) (UniProt Q9Y336); experiment: flow cytometry on human primary monocytes, isotype control, PE secondary
[8] = target: human Siglec-9 expressed on human cells (human) (UniProt Q9Y336); experiment: cell-based or functional assay

Sequence of human Siglec-9 expressed on human cells (human) (Q9Y336 18-463): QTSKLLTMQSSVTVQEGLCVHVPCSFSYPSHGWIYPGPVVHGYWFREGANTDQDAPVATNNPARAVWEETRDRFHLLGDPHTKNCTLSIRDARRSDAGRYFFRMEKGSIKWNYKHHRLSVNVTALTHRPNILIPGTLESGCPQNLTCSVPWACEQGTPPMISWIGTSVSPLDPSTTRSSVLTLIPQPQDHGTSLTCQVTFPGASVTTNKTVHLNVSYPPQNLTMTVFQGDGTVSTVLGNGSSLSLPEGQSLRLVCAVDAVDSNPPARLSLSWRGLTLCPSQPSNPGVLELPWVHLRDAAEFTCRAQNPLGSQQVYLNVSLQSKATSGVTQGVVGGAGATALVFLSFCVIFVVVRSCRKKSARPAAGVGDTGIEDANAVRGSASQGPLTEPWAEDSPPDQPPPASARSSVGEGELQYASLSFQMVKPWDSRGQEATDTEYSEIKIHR
Sequence of Siglec-9-Fc (R&D Systems, catalog number 1139-SL-050) (human) (Q9Y336 18-348 limits assumed): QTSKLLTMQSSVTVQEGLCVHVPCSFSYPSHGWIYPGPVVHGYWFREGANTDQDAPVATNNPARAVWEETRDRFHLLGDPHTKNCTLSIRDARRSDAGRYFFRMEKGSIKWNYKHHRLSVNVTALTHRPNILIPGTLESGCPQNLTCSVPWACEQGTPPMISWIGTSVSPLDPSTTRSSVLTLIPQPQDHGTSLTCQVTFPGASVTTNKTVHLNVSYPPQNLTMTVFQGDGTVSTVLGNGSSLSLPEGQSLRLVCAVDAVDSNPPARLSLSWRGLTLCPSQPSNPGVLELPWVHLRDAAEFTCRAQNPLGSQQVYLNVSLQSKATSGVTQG

Row | Substance | Mean : PE-A (Siglec-9-Fc bound to U937 cells in the presence of the mAb) [1] | % Positive [2] [%] | MFI [2] | % Positive [3] [%] | MFI [3] | % Positive [4] [%] | MFI [4] | % Positive [5] [%] | MFI [5] | % Positive [6] [%] | MFI [6] | % Positive [7] [%] | MFI [7] | Percent Siglec-9 Surface Expression, DCs (% Siglec-9) [8] [%] | Percent Siglec-9 Surface Expression, Macrophages (% Siglec-9) [8] [%] | Percent Siglec-9 Surface Expression, Microglia (% Siglec-9) [8] [%] | Percent Siglec-9 Surface Expression, Monocytes (% Siglec-9) [8] [%] | Percent Siglec-9 Surface Expression, THP-1 cells (% Siglec-9) [8] [%]
1 | PE-conjugated secondary antibody |  | 7.05 | 90.1 | 3.58 | 153 | 2.6 | 105 |  |  |  |  |  |  |  |  |  |  | 
2 | mIgG1 isotype control antibody |  |  |  |  |  |  |  | 3.01 | 115 | 12.3 | 132 | 2.6 | 104 | 96.5 | 99.3 | 90.3 | 100 | 100
3 | mIgG2b isotype control antibody |  |  |  |  |  |  |  | 12.6 | 180 | 26.4 | 319 | 4 | 145 | 93.4 | 97.2 | 91.7 | 98.9 | 98

Other lines, results leading:

Row | Mean : PE-A (Siglec-9-Fc bound to U937 cells in the presence of the mAb) [1] | % Positive [2] [%] | MFI [2] | % Positive [3] [%] | MFI [3] | % Positive [4] [%] | MFI [4] | % Positive [5] [%] | MFI [5] | % Positive [6] [%] | MFI [6] | % Positive [7] [%] | MFI [7] | Percent Siglec-9 Surface Expression, DCs (% Siglec-9) [8] [%] | Percent Siglec-9 Surface Expression, Macrophages (% Siglec-9) [8] [%] | Percent Siglec-9 Surface Expression, Microglia (% Siglec-9) [8] [%] | Percent Siglec-9 Surface Expression, Monocytes (% Siglec-9) [8] [%] | Percent Siglec-9 Surface Expression, THP-1 cells (% Siglec-9) [8] [%] | Substance
4 | 203 |  |  |  |  |  |  |  |  |  |  |  |  |  |  |  |  |  | Isotype (antibody)
5 |  |  |  |  |  |  |  | 22.6 | 164 | 8.45 | 121 | 3.5 | 127 | 98.6 | 97.8 | 91.2 | 101 | 95.9 | mIgG2a isotype control antibody
